Literature values in PMC5567442.

Target: Kv1.3 (UniProt P22001)
Chain of UniProt P22001 (P22001 whole entry): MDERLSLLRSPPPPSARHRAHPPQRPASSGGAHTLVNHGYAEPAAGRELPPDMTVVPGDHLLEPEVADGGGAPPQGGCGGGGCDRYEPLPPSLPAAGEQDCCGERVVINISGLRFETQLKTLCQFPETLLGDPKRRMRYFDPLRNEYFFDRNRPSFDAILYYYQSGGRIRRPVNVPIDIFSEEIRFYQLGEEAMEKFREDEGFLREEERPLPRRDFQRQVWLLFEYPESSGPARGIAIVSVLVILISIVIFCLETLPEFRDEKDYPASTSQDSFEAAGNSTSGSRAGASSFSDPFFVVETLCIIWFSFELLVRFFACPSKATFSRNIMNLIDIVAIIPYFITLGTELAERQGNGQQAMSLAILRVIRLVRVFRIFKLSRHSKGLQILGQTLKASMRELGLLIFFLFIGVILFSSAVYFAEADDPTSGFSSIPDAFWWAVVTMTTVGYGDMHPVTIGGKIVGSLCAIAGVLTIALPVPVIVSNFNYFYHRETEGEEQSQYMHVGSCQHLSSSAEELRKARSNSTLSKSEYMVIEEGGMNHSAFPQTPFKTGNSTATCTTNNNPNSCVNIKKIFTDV

For Agitoxin-2 (from UniProt P46111), the Kd is listed as 0.177 nM.
